Measurements reported in article PMC8319299 (2020).
Where no end group is shown, it is not given here. [ ]: non-standard residue; d: D form. Lys(Me3) = C[N+](C)(C)CCCC[C@H](N)C(=O)O

Target: EED (amino acids 40-441) (human, UniProt O75530-1 40-441)
Test: FP

Sequence of EED (amino acids 40-441) (O75530 40-441): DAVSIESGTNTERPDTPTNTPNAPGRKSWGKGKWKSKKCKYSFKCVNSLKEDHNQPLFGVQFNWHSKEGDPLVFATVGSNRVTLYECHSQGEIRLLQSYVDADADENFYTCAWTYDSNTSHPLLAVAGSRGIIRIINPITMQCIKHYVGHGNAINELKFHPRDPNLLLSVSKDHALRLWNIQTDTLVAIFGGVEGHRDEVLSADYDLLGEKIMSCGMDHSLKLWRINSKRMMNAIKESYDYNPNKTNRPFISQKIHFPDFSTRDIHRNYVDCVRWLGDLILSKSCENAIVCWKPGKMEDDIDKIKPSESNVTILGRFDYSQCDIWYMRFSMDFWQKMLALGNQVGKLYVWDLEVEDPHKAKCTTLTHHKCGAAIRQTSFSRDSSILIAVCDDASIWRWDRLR

Binder: LK[Lys(Me3)]APG [PALI1-K1241me3 peptide with the F1242A mutation]
- Kd: 223 µM
